# Measured values reported in article PMC125294 (Arthritis Research, 2002).
# Ends that are not written are not given here.
# T1: Lewis rat MHC class II molecule, RT1.B^L (rat (Lewis), UniProt P20037 24-256; P29826 28-263)
# T1 sequence (looked up) 1: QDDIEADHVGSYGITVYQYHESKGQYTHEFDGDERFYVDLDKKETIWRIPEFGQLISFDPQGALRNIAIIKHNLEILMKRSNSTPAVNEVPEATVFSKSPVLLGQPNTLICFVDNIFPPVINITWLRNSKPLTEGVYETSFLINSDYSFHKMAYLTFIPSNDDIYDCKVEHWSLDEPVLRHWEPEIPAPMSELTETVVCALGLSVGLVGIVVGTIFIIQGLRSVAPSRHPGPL
# T1 sequence (looked up) 2: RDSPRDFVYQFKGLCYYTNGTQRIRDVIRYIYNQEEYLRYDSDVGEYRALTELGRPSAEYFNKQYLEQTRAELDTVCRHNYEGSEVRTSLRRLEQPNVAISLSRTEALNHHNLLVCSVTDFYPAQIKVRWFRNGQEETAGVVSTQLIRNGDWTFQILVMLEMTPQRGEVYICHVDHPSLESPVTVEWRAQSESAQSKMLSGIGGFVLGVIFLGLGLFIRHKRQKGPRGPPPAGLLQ
# Key:
# [1] = tested on: MMP peptide-specific T cells; test: Delayed-type hypersensitivity; settings: control ovalbumin peptide
# [2] = tested on: polyclonal lymph node cell population; settings: ref [9] (also Fig. 3); cited from earlier work
# [3] = molecular target: T1, Lewis rat MHC class II molecule, RT1.B^L; test: competitive MHC class II-peptide binding assay
Molecule,IC50 [3] [µM],further results
ISQAVHAAHAEINEAGR [OVA323–339],–,"DTH reaction (in words), control peptide [1]: no DTH reaction was observed"
SNTFGLQLE [hsp65_178–186],–,proliferative response to mycobacterial hsp65 178–186 [2]: very low
SAFWPSLPSGLDAAY-NH2 [Rat MMP-10_(329-343) peptide],128 to 256,–
FLYFFSGSSQLEFDP-NH2 [Rat MMP-3_(444-458) peptide],≤ 8,–
VKEGHSPPDDVDIVI-NH2 [Human MMP-16_(539-553) peptide],64 to 128,–
